How the values were obtained:
[1] = biological target: Platynereis dumerilii L-Cryptochrome (L-Cry), full length, N-terminally His6-tagged (1-567) (Platynereis dumerilii); test: SEC-MALS; purified dark-state L-Cry on a Superose 6 10/300 column, 0.4 ml/min, SEC buffer 25 mM Bis-Tris propane pH 8.0, 150 mM NaCl; molar mass about 130 kDa against 65.6 kDa for the monomer
L-Cry (Pdu-L-Cry) = biological target: T1, L-Cry (Pdu-L-Cry) (Platynereis dumerilii, UniProt Z9ZPX6J9J5); test: RP-HPLC of chromophore released from purified protein; UV/Vis spectroscopy; assay type: binding; details: co-purified from Sf9 cells; dark state oxidized FAD (maxima 450 and 475 nm), photoreduced to anionic radical; pH 8.0, 1 mM TCEP
T1 sequence (Z9ZPX6J9J5 1-565): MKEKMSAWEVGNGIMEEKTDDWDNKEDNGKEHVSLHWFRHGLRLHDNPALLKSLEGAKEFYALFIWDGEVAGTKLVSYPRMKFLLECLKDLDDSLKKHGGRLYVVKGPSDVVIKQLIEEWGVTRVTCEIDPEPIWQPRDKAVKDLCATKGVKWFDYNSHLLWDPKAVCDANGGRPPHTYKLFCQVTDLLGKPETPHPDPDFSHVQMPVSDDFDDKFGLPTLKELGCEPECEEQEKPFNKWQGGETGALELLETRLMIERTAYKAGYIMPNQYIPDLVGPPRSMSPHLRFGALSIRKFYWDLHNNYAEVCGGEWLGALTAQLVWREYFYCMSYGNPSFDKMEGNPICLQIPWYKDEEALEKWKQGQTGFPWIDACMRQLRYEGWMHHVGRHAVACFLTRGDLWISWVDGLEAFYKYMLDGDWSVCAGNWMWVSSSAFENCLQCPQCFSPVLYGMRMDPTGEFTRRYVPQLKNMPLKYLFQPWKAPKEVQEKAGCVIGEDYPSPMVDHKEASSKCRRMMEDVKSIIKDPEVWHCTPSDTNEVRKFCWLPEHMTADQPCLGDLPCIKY

Compound	stoichiometry N [1]	RP-HPLC of chromophore released from purified protein; UV/Vis spectroscopy (L-Cry (Pdu-L-Cry))
Platynereis dumerilii L-Cryptochrome (L-Cry), full length, N-terminally His6-tagged (1-567) (natural protein)	2	
Cc1cc2nc3c(=O)[nH]c(=O)nc-3n(C[C@H](O)[C@H](O)[C@H](O)COP(=O)(O)OP(=O)(O)OC[C@H]3O[C@@H](n4cnc5c(N)ncnc54)[C@H](O)[C@@H]3O)c2cc1C [Flavin Adenine Dinucleotide]		purified L-Cry binds Flavin Adenine Dinucleotide (FAD) as its chromophore

Source: paper PMC9445029, “A Cryptochrome adopts distinct moon- and sunlight states and functions as sun- versus moonlight interpreter in monthly oscillator entrainment” (Nature Communications, 2022)
